Sequences and labels used below:
B1: Liprin-alpha-1 (Homo sapiens), Q13136 (parent)
chain: MMCEVMPTISEAEGPPGGGGGHGSGSPSQPDADSHFEQLMVSMLEERDRLLDTLRETQETLALTQGKLHEVGHERDSLQRQLNTALPQEFAALTKELNVCREQLLEREEEIAELKAERNNTRLLLEHLECLVSRHERSLRMTVVKRQAQSPAGVSSEVEVLKALKSLFEHHKALDEKVRERLRVALERCSLLEEELGATHKELMILKEQNNQKKTLTDGVLDINHEQENTPSTSGKRSSDGSLSHEEDLAKVIELQEIISKQSREQSQMKERLASLSSHVTELEEDLDTARKDLIKSEEMNTKLQRDVREAMAQKEDMEERITTLEKRYLAAQREATSVHDLNDKLENEIANKDSMHRQTEDKNRQLQERLELAEQKLQQTLRKAETLPEVEAELAQRVAALSKAEERHGNIEERLRQMEAQLEEKNQELQRARQREKMNEEHNKRLSDTVDKLLSESNERLQLHLKERMAALEDKNSLLREVESAKKQLEETQHDKDQLVLNIEALRAELDHMRLRGASLHHGRPHLGSVPDFRFPMADGHTDSYSTSAVLRRPQKGRLAALRDEPSKVQTLNEQDWERAQQASVLANVAQAFESDADVSDGEDDRDTLLSSVDLLSPSGQADAHTLAMMLQEQLDAINKEIRLIQEEKENTEQRAEEIESRVGSGSLDNLGRFRSMSSIPPYPASSLASSSPPGSGRSTPRRIPHSPAREVDRLGVMTLLPPSREEVRDDKTTIKCETSPPSSPRALRLDRLHKGALHTVSHEDIRDIRNSTGSQDGPVSNPSSSNSSQDSLHKAPKKKGIKSSIGRLFGKKEKGRPGQTGKEALGQAGVSETDNSSQDALGLSKLGGQAEKNRKLQKKHELLEEARRQGLPFAQWDGPTVVVWLELWVGMPAWYVAACRANVKSGAIMSALSDTEIQREIGISNPLHRLKLRLAIQEIMSLTSPSAPPTSRTTLAYGDMNHEWIGNEWLPSLGLPQYRSYFMECLVDARMLDHLTKKDLRGQLKMVDSFHRNSFQCGIMCLRRLNYDRKELERKREESQSEIKDVLVWSNDRVIRWILSIGLKEYANNLIESGVHGALLALDETFDFSALALLLQIPTQNTQARAVLEREFNNLLVMGTDRRFDEDDDKSFRRAPSWRKKFRPKDIRGLAAGSAETLPANFRVTSSMSSPSMQPKKMQMDGNVSGTQRLDSATVRTYSC
partner: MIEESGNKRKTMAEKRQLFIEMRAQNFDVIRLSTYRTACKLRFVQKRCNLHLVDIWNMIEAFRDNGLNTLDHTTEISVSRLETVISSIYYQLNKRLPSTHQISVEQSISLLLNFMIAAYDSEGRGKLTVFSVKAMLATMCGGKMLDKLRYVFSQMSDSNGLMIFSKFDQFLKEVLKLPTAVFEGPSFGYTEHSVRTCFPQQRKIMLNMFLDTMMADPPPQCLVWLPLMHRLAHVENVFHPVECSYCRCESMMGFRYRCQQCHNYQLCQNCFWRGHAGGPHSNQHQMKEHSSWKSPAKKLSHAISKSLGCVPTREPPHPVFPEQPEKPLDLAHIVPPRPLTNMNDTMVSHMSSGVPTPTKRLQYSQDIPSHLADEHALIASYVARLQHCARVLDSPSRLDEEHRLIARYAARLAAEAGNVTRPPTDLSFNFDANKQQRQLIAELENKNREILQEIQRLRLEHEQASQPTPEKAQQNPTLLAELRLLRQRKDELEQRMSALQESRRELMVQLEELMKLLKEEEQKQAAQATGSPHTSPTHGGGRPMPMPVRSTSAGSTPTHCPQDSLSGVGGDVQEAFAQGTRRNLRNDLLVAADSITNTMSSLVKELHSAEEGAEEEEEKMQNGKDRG
B2: Glutaredoxin-3 (Homo sapiens), O76003 (parent)
chain: MAAGAAEAAVAAVEEVGSAGQFEELLRLKAKSLLVVHFWAPWAPQCAQMNEVMAELAKELPQVSFVKLEAEGVPEVSEKYEISSVPTFLFFKNSQKIDRLDGAHAPELTKKVQRHASSGSFLPSANEHLKEDLNLRLKKLTHAAPCMLFMKGTPQEPRCGFSKQMVEILHKHNIQFSSFDIFSDEEVRQGLKAYSSWPTYPQLYVSGELIGGLDIIKELEASEELDTICPKAPKLEERLKVLTNKASVMLFMKGNKQEAKCGFSKQILEILNSTGVEYETFDILEDEEVRQGLKAYSNWPTYPQLYVKGELVGGLDIVKELKENGELLPILRGEN
partner: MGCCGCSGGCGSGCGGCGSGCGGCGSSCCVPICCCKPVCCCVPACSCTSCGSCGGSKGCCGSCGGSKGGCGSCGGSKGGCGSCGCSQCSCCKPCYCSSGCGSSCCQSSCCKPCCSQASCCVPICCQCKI
B3: Coiled-coil alpha-helical rod protein 1 (Homo sapiens), Q8TD31 (parent)
chain: MFPPSGSTGLIPPSHFQARPLSTLPRMAPTWLSDIPLVQPPGHQDVSERRLDTQRPQVTMWERDVSSDRQEPGRRGRSWGLEGSQALSQQAEVIVRQLQELRRLEEEVRLLRETSLQQKMRLEAQAMELEALARAEKAGRAEAEGLRAALAGAEVVRKNLEEGSQRELEEVQRLHQEQLSSLTQAHEEALSSLTSKAEGLEKSLSSLETRRAGEAKELAEAQREAELLRKQLSKTQEDLEAQVTLVENLRKYVGEQVPSEVHSQTWELERQKLLETMQHLQEDRDSLHATAELLQVRVQSLTHILALQEEELTRKVQPSDSLEPEFTRKCQSLLNRWREKVFALMVQLKAQELEHSDSVKQLKGQVASLQEKVTSQSQEQAILQRSLQDKAAEVEVERMGAKGLQLELSRAQEARRRWQQQTASAEEQLRLVVNAVSSSQIWLETTMAKVEGAAAQLPSLNNRLSYAVRKVHTIRGLIARKLALAQLRQESCPLPPPVTDVSLELQQLREERNRLDAELQLSARLIQQEVGRAREQGEAERQQLSKVAQQLEQELQQTQESLASLGLQLEVARQGQQESTEEAASLRQELTQQQELYGQALQEKVAEVETRLREQLSDTERRLNEARREHAKAVVSLRQIQRRAAQEKERSQELRRLQEEARKEEGQRLARRLQELERDKNLMLATLQQEGLLSRYKQQRLLTVLPSLLDKKKSVVSSPRPPECSASAPVAAAVPTRESIKGSLSVLLDDLQDLSEAISKEEAVCQGDNLDRCSSSNPQMSS
partner: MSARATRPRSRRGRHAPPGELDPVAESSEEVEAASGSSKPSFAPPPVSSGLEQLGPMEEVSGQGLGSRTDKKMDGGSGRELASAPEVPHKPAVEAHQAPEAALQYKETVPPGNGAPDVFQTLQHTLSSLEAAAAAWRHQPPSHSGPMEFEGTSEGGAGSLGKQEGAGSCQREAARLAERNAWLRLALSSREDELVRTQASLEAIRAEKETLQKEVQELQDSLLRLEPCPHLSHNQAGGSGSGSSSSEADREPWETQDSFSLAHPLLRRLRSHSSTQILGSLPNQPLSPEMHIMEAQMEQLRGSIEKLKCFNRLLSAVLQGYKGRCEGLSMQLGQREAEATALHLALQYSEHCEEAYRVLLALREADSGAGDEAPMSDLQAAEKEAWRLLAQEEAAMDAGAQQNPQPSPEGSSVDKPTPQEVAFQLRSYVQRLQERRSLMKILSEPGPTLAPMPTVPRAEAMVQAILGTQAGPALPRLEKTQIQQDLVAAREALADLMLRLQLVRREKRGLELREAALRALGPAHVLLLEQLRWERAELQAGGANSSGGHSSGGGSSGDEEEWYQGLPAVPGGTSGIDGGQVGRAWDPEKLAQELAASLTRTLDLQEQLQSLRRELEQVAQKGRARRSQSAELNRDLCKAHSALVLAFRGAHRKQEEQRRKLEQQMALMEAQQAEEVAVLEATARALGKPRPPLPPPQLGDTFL
B4: Multifunctional procollagen lysine hydroxylase and glycosyltransferase LH3 (Homo sapiens), O60568 (parent)
chain: MTSSGPGPRFLLLLPLLLPPAASASDRPRGRDPVNPEKLLVITVATAETEGYLRFLRSAEFFNYTVRTLGLGEEWRGGDVARTVGGGQKVRWLKKEMEKYADREDMIIMFVDSYDVILAGSPTELLKKFVQSGSRLLFSAESFCWPEWGLAEQYPEVGTGKRFLNSGGFIGFATTIHQIVRQWKYKDDDDDQLFYTRLYLDPGLREKLSLNLDHKSRIFQNLNGALDEVVLKFDRNRVRIRNVAYDTLPIVVHGNGPTKLQLNYLGNYVPNGWTPEGGCGFCNQDRRTLPGGQPPPRVFLAVFVEQPTPFLPRFLQRLLLLDYPPDRVTLFLHNNEVFHEPHIADSWPQLQDHFSAVKLVGPEEALSPGEARDMAMDLCRQDPECEFYFSLDADAVLTNLQTLRILIEENRKVIAPMLSRHGKLWSNFWGALSPDEYYARSEDYVELVQRKRVGVWNVPYISQAYVIRGDTLRMELPQRDVFSGSDTDPDMAFCKSFRDKGIFLHLSNQHEFGRLLATSRYDTEHLHPDLWQIFDNPVDWKEQYIHENYSRALEGEGIVEQPCPDVYWFPLLSEQMCDELVAEMEHYGQWSGGRHEDSRLAGGYENVPTVDIHMKQVGYEDQWLQLLRTYVGPMTESLFPGYHTKARAVMNFVVRYRPDEQPSLRPHHDSSTFTLNVALNHKGLDYEGGGCRFLRYDCVISSPRKGWALLHPGRLTHYHEGLPTTWGTRYIMVSFVDP
partner: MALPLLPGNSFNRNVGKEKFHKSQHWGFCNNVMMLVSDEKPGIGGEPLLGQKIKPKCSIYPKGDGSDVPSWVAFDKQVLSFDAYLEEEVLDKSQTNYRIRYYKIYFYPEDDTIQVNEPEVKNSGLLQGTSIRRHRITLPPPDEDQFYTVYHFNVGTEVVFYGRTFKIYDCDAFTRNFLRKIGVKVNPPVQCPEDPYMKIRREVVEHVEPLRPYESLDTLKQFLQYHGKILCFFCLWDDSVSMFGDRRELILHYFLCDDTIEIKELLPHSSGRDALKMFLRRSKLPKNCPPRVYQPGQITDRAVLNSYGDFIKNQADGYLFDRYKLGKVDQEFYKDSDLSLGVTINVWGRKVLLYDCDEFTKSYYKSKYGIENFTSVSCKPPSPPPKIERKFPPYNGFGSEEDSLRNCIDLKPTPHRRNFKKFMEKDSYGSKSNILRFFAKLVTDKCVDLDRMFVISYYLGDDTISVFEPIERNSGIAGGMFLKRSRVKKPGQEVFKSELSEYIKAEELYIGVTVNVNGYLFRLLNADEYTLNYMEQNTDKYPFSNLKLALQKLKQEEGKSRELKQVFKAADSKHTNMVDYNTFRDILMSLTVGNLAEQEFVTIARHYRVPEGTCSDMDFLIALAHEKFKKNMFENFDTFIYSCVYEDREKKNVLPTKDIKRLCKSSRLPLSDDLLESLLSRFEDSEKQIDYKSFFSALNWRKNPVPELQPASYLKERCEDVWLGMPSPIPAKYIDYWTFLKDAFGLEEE

The variants in the first test derive from B1. The following applies: with dtnb_human DTNB.
As to P389L, the “effect of a mutation on the interaction” value is “with no effect”.

The next test covers variants of B2. Particulars: with kra56_human KRTAP5-6, Q6L8G9.
In the case of P145A, the “effect of a mutation on the interaction” value is “with no effect”.

In another test the parent is B3. Particulars: with usbp1_human USHBP1, Q8N6Y0.
Turning to W337R, the “effect of a mutation on the interaction” value is on record as “disrupting interaction strength”.

The variants in another test derive from B4. The following applies: with efhc2_human EFHC2, Q5JST6.
R235Q: the “effect of a mutation on the interaction” value is recorded as “with no effect”.

These data come from IntAct's records for PubMed 29892012.
